Reference: publication PMC5487486

Columns and labels:
[1] = target: TaSPA (Triticum aestivum); test: two-hybrid; Gal4 system (pGADT7 and pGBKT7), yeast strain Y187, read out by growth and β-galactosidase (LacZ) activity, three replicates
[2] = target: TaFUSCA3 N-terminal region (1st to 60th amino acids) (Triticum aestivum); test: as above

Sequence of TaSPA (Triticum aestivum) (Q7X9A8 whole entry, the tested form may be a part): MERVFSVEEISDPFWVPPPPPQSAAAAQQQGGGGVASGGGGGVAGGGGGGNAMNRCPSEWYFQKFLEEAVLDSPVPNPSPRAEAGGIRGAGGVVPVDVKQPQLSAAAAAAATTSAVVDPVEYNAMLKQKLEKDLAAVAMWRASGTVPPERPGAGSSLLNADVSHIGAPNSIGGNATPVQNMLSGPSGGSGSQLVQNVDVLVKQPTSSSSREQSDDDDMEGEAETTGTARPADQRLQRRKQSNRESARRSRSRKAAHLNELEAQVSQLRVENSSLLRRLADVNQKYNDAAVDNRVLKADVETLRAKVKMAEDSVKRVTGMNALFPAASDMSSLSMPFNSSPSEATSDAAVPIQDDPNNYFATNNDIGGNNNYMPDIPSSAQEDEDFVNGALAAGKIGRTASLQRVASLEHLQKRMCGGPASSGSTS

Substance | fold β-galactosidase activity over AD-FUSCA3* with BD-SPA [1] [fold] | fold β-galactosidase activity over the B3 domain with SPA [2] [fold]
TaFUSCA3 (natural protein) | 2 | –
TaSPA (from UniProt Q7X9A8 1-425) (natural protein) | – | 4
